ChEMBL document CHEMBL1157682, “In silico prediction of human carboxylesterase-1 (hCES1) metabolism combining docking analyses and MD simulations” (Bioorg Med Chem, 2010)
Values joined by “and” are separate entries in the source; they are usually repeats but may differ in a detail not shown here. Equal values may be shown once.

Tests used:
[1] = substrate: COc1ccc2cc([C@H](C#N)OC(=O)[C@@H]3[C@@H](C=C(Cl)Cl)C3(C)C)ccc2c1; experiment: (§1) Activity at human recombinant CES1 expressed in baculovirus-infected Spodoptera frugiperda Sf21 cells assessed as substrate hydrolysis by fluorescence assay
[2] = substrate: CC(C)[C@H](N)C(=O)OC[C@H]1O[C@@H](n2cc(F)c(=O)[nH]c2=O)C[C@@H]1O; experiment: as §1
[3] = substrate: CC1(C)[C@H](C=C(Cl)Cl)[C@@H]1C(=O)OCc1cccc(Oc2ccccc2)c1; experiment: as §1
[4] = substrate: COc1ccc(C(=O)N2CCCC2=O)cc1; experiment: as §1
[5] = substrate: COc1ccc2cc([C@@H](C#N)OC(=O)[C@H]3[C@H](C=C(Cl)Cl)C3(C)C)ccc2c1; experiment: as §1
[6] = substrate: CC(=O)Oc1ccc([N+](=O)[O-])cc1; experiment: as §1
[7] = substrate: CCCCCOC(=O)Nc1nc(=O)n([C@@H]2O[C@H](C)[C@@H](O)[C@H]2O)cc1F; experiment: as §1
[8] = substrate: [H][C@@]1([C@@H](C(=O)OC)c2ccccc2)CCCCN1; experiment: as §1
[9] = substrate: COc1ccc2cc([C@@H](C#N)OC(=O)[C@H]3[C@@H](C=C(Cl)Cl)C3(C)C)ccc2c1; experiment: as §1
[10] = substrate: CC(=O)O[C@H]1C=C[C@H]2[C@H]3Cc4ccc(O)c5c4[C@@]2(CCN3C)[C@H]1O5; experiment: as §1
[11] = substrate: COc1ccc2cc([C@@H](C#N)OC(=O)[C@@H]3[C@@H](C=C(Cl)Cl)C3(C)C)ccc2c1; experiment: as §1
[12] = substrate: CCCC(=O)Oc1ccc([N+](=O)[O-])cc1; experiment: as §1
[13] = substrate: CC(C)C[C@H](N)C(=O)OC[C@H]1O[C@@H](n2cc(F)c(=O)[nH]c2=O)C[C@@H]1O; experiment: as §1
[14] = substrate: CC(=O)Oc1ccc2c(C)cc(=O)oc2c1; experiment: as §1
[15] = substrate: CCOC(=O)[C@H](CCc1ccccc1)N[C@H]1CS[C@H](c2cccs2)CN(CC(=O)O)C1=O; experiment: as §1
[16] = substrate: COc1ccc2cc([C@H](C#N)OC(=O)[C@@H]3[C@H](C=C(Cl)Cl)C3(C)C)ccc2c1; experiment: as §1
[17] = substrate: COc1ccc2cc([C@H](C#N)OC(=O)[C@H]3[C@@H](C=C(Cl)Cl)C3(C)C)ccc2c1; experiment: as §1
[18] = substrate: N[C@@H](CC(=O)O)C(=O)OC[C@H]1O[C@@H](n2cc(F)c(=O)[nH]c2=O)C[C@@H]1O; experiment: as §1
[19] = substrate: COc1ccc2cc(C(C#N)OC(=O)C3C(C)(C)C3(C)C)ccc2c1; experiment: as §1
[20] = substrate: CCOC(=O)[C@H](CCc1ccccc1)N[C@H]1CCCN2CCC[C@@H](C(=O)O)N2C1=O; experiment: as §1
[21] = substrate: CCOC(=O)C1(c2ccccc2)CCN(C)CC1; experiment: as §1
[22] = substrate: COc1ccc2cc([C@H](C#N)OC(=O)[C@H]3[C@H](C=C(Cl)Cl)C3(C)C)ccc2c1; experiment: as §1
[23] = substrate: CCc1c2c(nc3ccc(OC(=O)N4CCC(N5CCCCC5)CC4)cc13)-c1cc3c(c(=O)n1C2)COC(=O)[C@]3(O)CC; experiment: as §1
[24] = substrate: CCOC(=O)[C@H](CCc1ccccc1)N[C@@H](C)C(=O)N(CC(=O)O)C1Cc2ccccc2C1; experiment: as §1
[25] = substrate: CCOC(=O)[C@H](CCc1ccccc1)N[C@@H](C)C(=O)N1C(=O)N(C)C[C@H]1C(=O)O; experiment: as §1
[26] = substrate: CC1(C)[C@H](C(=O)OCc2cccc(Oc3ccccc3)c2)[C@@H]1C=C(Cl)Cl; experiment: as §1
[27] = substrate: CC1(C)[C@H](C=C(Cl)Cl)[C@H]1C(=O)OCc1cccc(Oc2ccccc2)c1; experiment: as §1
[28] = substrate: CC(C)=C[C@H]1[C@H](C(=O)OCc2coc(Cc3ccccc3)c2)C1(C)C; experiment: as §1
[29] = substrate: CC1(C)[C@@H](C=C(Cl)Cl)[C@@H]1C(=O)OCc1cccc(Oc2ccccc2)c1; experiment: as §1
[30] = substrate: COc1cc(C(=O)OCCCN2CCCN(CCCOC(=O)c3cc(OC)c(OC)c(OC)c3)CC2)cc(OC)c1OC; experiment: as §1
[31] = substrate: CN(C)C(=O)COC(=O)Cc1ccc(OC(=O)c2ccc(NC(=N)N)cc2)cc1; experiment: as §1
[32] = substrate: CCOC(=O)[C@H](CCc1ccccc1)N[C@@H](C)C(=O)N1Cc2ccccc2C[C@H]1C(=O)O; experiment: as §1
[33] = substrate: CCOC(=O)C1=C[C@@H](OC(CC)CC)[C@H](NC(C)=O)[C@@H](N)C1; experiment: as §1
[34] = substrate: COC(=O)[C@H](c1ccccc1)[C@H]1CCCCN1; experiment: as §1
[35] = substrate: CC(=O)Oc1ccc2c3c1O[C@H]1[C@@H](OC(C)=O)C=C[C@H]4[C@@H](C2)N(C)CC[C@@]341; experiment: as §1
[36] = substrate: N[C@@H](Cc1ccccc1)C(=O)OC[C@H]1O[C@@H](n2cc(F)c(=O)[nH]c2=O)C[C@@H]1O; experiment: as §1
[37] = substrate: COC(=O)[C@H]1[C@@H](OC(=O)c2ccccc2)C[C@@H]2CC[C@H]1N2C; experiment: as §1
[38] = substrate: CCOC(=O)[C@H](CCc1ccccc1)N[C@H]1CCc2ccccc2N(CC(=O)O)C1=O; experiment: as §1
not read = substrate: COC(=O)[C@H](c1ccccc1Cl)N1CCc2sccc2C1; experiment: not read

B1: Liver carboxylesterase 1 (Homo sapiens) (protein)
chain: MWLRAFILATLSASAAWGHPSSPPVVDTVHGKVLGKFVSLEGFAQPVAIFLGIPFAKPPLGPLRFTPPQPAEPWSFVKNATSYPPMCTQDPKAGQLLSELFTNRKENIPLKLSEDCLYLNIYTPADLTKKNRLPVMVWIHGGGLMVGAASTYDGLALAAHENVVVVTIQYRLGIWGFFSTGDEHSRGNWGHLDQVAALRWVQDNIASFGGNPGSVTIFGESAGGESVSVLVLSPLAKNLFHRAISESGVALTSVLVKKGDVKPLAEQIAITAGCKTTTSAVMVHCLRQKTEEELLETTLKMKFLSLDLQGDPRESQPLLGTVIDGMLLLKTPEELQAERNFHTVPYMVGINKQEFGWLIPMQLMSYPLSEGQLDQKTAMSLLWKSYPLVCIAKELIPEATEKYLGGTDDTVKKKDLFLDLIADVMFGVPSVIVARNHRDAGAPTYMYEFQYRPSFSSDMKPKTVIGDHGDELFSVFGAPFLKEGASEEEIRLSKMVMKFWANFARNGNPNGEGLPHWPEYNQKEGYLQIGANTQAAQKLKDKEVAFWTNLFAKKAVEKPPQTEHIEL
Km [1]: 1.7 µM
Km [2]: 3580 µM
Km [3]: 23.8 µM
Km [4]: 85 µM and 95 µM
Km [5]: 2.4 µM
Km [6]: 359 µM
Km [7]: 1300 µM
Km [8]: 89.9 µM
Km [9]: 1.4 µM
Km [10]: 8300 µM
Km [11]: 0.7 µM
Km [12]: 130 µM
Km [13]: 970 µM
Km [14]: 800 µM
Km [15]: 786 µM
Km [16]: 0.3 µM
Km [17]: 1.5 µM
Km [18]: 3000 µM
Km [19]: 1.5 µM
Km [20]: 1300 µM
Km [21]: 1900 µM
Km [22]: 1.9 µM
Km [23]: 1450 µM
Km [24]: 1500 µM
Km [25]: 287 µM
Km [26]: 23.8 µM
Km [27]: 9.8 µM
Km [28]: 6.72 µM
Km [29]: 9.8 µM
Km [30]: 154 µM
Km [31]: 707 µM
Km [32]: 134 µM
Km [33]: 177 µM
Km [34]: 43.8 µM
Km [35]: 6300 µM
Km [36]: 460 µM
Km [37]: 120 µM
Km [38]: 734 µM
Km (not read): 55.7 µM
